Results published in the supplement of paper PMC10567573.

B1: ALDH8A1 (parent)
chain: RVAKKLQSGLVWTNCWLIRELNLP
B2: TMEM120A (parent)
chain: YQSFVQFLQYYYQSGCLYRLRALG

Variants of: B1
Experiment: protein stability index of a GFP-peptide fusion (GPS, HEK-293T) (PSI 1-6); higher = more stable
Conditions: c terminus: a fixed tail appended
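Further: lentivirally expressed fusions sorted by FACS into six bins by GFP to DsRed ratio, PSI derived from sequencing read proportions per bin multiplied by bin number.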

Variant	protein stability index
RVAKKLQSGLVWTNCWDIRELNLP	3.58
RVAKKLQSGLVWTNCWEIRELNLP	2.77
RVAKKLQSGLVWTNCWIIRELNLP	1.08
RVAKKLQSGLVWTNCWRIRELNLP	3.13
RVAKKLQSGLVWTNCWQIRELNLP	1.32
RVAKKLQSGLVWTNCWPIRELNLP	1.68
RVAKKLQSGLVWTNCWFIRELNLP	2.6
RVAKKLQSGLVWTNCWNIRELNLP	1.33
RVAKKLQSGLVWTNCWKIRELNLP	1.34
RVAKKLQSGLVWTNCWLIRELNLA	2.76
RVAKKLQSGLVWTNCWLIRELNLY	3.16
RVAKKLQSGLVWTNCWLIRELNLS	2.25
RVAKKLQSGLVWTNCWLIRELNLW	3.34
RVAKKLQSGLVWTNCWLIRELNLT	2.19
RVAKKLQSGLVWTNCWLPRELNLP	1.3
RVAKKLQSGLVWTNCWLHRELNLP	1.89
RVAKKLQSGLVWTNCWLYRELNLP	1.89
RVAKKLQSGLVWTNCWLKRELNLP	4.38
RVAKKLQSGLVWTNCWLNRELNLP	2.46
RVAKKLQSGLVWTNCWLERELNLP	2.2
RVAKKLQSGLVWTNCWLSRELNLP	3.62
RVAKKLQSGLVWTNCWLTRELNLP	2.57
RVAKKLQSGLVWTNCWLMRELNLP	2.47
RVAKKLQSGLVWTNCWLDRELNLP	1.73

Variant	protein stability index
RVAKKLQSGLVWTNCWLIRELGLP	2.7
RVAKKLQSGLVWTNCWLIRELILP	3.01
RVAKKLQSGLVWTNCWLIRELTLP	2.17
RVAKKLQSGLVWTNCWLIRELPLP	3.03
RVAKKLQSGLVWTNCWLIRELDLP	5.55
RVAKKLQSGLVWTNCWLIRELYLP	3.15
RVAKKLQSGLVWTNCWLIRELKLP	4.74
RVAKKLQSGLVWTNCWLILELNLP	2.18
RVAKKLQSGLVWTNCWLIPELNLP	1.53
RVAKKLQSGLVWTNCWLIFELNLP	1.5
RVAKKLQSGLVWTNCWLINELNLP	3.94
RVAKKLQSGLVWTNCWLISELNLP	2.44
RVAKKLQSGLVWTNCTLIRELNLP	2.09
RVAKKLQSGLVWTNCWLIREWNLP	2.9
RVAKKLQSGLVWTNCWLIREHNLP	2.79
RVAKKLQSGLVWTNCWLIREGNLP	5.81
RVAKKLQSGLVWTNCWLIREDNLP	3.05
RVAKKLQSGLVWTNCWLIRTLNLP	3.57
RVAKKLQSGLVWTNCWLIRPLNLP	2.22
RVAKKLQSGLVWTNCWLIRYLNLP	3.02
RVAKKLQSGLVWTNCWLIRMLNLP	1.33
RVAKKLQSGLVWTNCWLIRELNEP	2.88
RVAKKLQSGLVWTNCWLIRELNMP	3.59
RVAKKLQSGLVWTNCWLIRELNQP	3.48

Variants of: B2
Experiment: as above
Conditions: c terminus: a fixed tail appended

Variant	protein stability index
YQYFVQFLQYYYQSGCLYRLRALG	4.62
YQDFVQFLQYYYQSGCLYRLRALG	3.12
YQAFVQFLQYYYQSGCLYRLRALG	1.05
YQLFVQFLQYYYQSGCLYRLRALG	3.8
YQVFVQFLQYYYQSGCLYRLRALG	3.32
YQPFVQFLQYYYQSGCLYRLRALG	3.24
YQTFVQFLQYYYQSGCLYRLRALG	2.88
YQHFVQFLQYYYQSGCLYRLRALG	2.33
YQMFVQFLQYYYQSGCLYRLRALG	3.7
YQNFVQFLQYYYQSGCLYRLRALG	2.12
YQRFVQFLQYYYQSGCLYRLRALG	2.35
YQSFVQNLQYYYQSGCLYRLRALG	3.1
YQSFVQDLQYYYQSGCLYRLRALG	1.8
YQSFVQWLQYYYQSGCLYRLRALG	3.54
YQSFVQILQYYYQSGCLYRLRALG	2.33
YQSFVQSLQYYYQSGCLYRLRALG	1.04
YQSFVQHLQYYYQSGCLYRLRALG	1.62
YQSFVQYLQYYYQSGCLYRLRALG	5.14
YQSFVQLLQYYYQSGCLYRLRALG	3.51
YQSFVQTLQYYYQSGCLYRLRALG	2.28
YQSFVQFLQYYRQSGCLYRLRALG	2.3
YQSFVQFLQYYIQSGCLYRLRALG	2.34
YQSFVQFLQYYHQSGCLYRLRALG	2.51
YQSFVQFLQYYGQSGCLYRLRALG	2.04

Variant	protein stability index
YQSFVQFLQYYFQSGCLYRLRALG	2.15
YQSFVQFLQYYAQSGCLYRLRALG	3.04
YQSFVQFLQYYCQSGCLYRLRALG	4.09
YQSFVQFLQYYTQSGCLYRLRALG	2.73
YQSFVQFLQYYMQSGCLYRLRALG	3.19
YQSFVQFLQYYLQSGCLYRLRALG	1.19
YQSFVQFLQYYKQSGCLYRLRALG	1.86
YQSFVQFLQYYYQSWCLYRLRALG	1.9
YQSFVQFLQYYYQSSCLYRLRALG	2.95
YQSFVQFLQYYYQSLCLYRLRALG	3.31
YQSFVQFLQYYYQSICLYRLRALG	2.66
YQSFVVFLQYYYQSGCLYRLRALG	2.92
YQSFVNFLQYYYQSGCLYRLRALG	2.48
YQSFVDFLQYYYQSGCLYRLRALG	3.22
YQSFVLFLQYYYQSGCLYRLRALG	3.11
YQSFVRFLQYYYQSGCLYRLRALG	2.24
YQSFVWFLQYYYQSGCLYRLRALG	3.03
YQSFVFFLQYYYQSGCLYRLRALG	1.8
YQSFVGFLQYYYQSGCLYRLRALG	3.6
YQSFVEFLQYYYQSGCLYRLRALG	1.84
YWSFVQFLQYYYQSGCLYRLRALG	1.21
YYSFVQFLQYYYQSGCLYRLRALG	1.83
YMSFVQFLQYYYQSGCLYRLRALG	3.47
YISFVQFLQYYYQSGCLYRLRALG	2.65

Variant	protein stability index
YSSFVQFLQYYYQSGCLYRLRALG	2.29
YFSFVQFLQYYYQSGCLYRLRALG	3.7
YRSFVQFLQYYYQSGCLYRLRALG	1.21
YESFVQFLQYYYQSGCLYRLRALG	3.02
YLSFVQFLQYYYQSGCLYRLRALG	3.88
YASFVQFLQYYYQSGCLYRLRALG	2.37
YQSFVQFLQYRYQSGCLYRLRALG	3.03
YQSFVQFLQYFYQSGCLYRLRALG	3.33
YQSFVQFLQYLYQSGCLYRLRALG	1.34
YQSFVQFLQYCYQSGCLYRLRALG	2.45
YQSFVQFLQYSYQSGCLYRLRALG	3.12
YQSFVQFLQYAYQSGCLYRLRALG	1.28
YQSFVQFLQYMYQSGCLYRLRALG	3.5
YQSFVQFLQYWYQSGCLYRLRALG	1.74
YQSFFQFLQYYYQSGCLYRLRALG	2.25
YQSFCQFLQYYYQSGCLYRLRALG	2.31
YQSFNQFLQYYYQSGCLYRLRALG	4.88
YQSFRQFLQYYYQSGCLYRLRALG	3.82
YQSFKQFLQYYYQSGCLYRLRALG	2.62
YQSFIQFLQYYYQSGCLYRLRALG	3.51
YQSFHQFLQYYYQSGCLYRLRALG	2.39
YQSFMQFLQYYYQSGCLYRLRALG	2.91
YQSFQQFLQYYYQSGCLYRLRALG	1.89
YQSFVQFLQYYYYSGCLYRLRALG	1.97

Variant	protein stability index
YQSFVQFLQYYYLSGCLYRLRALG	2.38
YQSFVQFLQYYYSSGCLYRLRALG	3.55
YQSFVQFLQYYYMSGCLYRLRALG	4.22
YQSFVQFLQYYYTSGCLYRLRALG	1.8
YQSFVQFLQYYYCSGCLYRLRALG	3.12
YQSFVQFLQYYYFSGCLYRLRALG	2.43
YQSFVQFLQYYYNSGCLYRLRALG	2.81
YQSFVQFLQYYYWSGCLYRLRALG	4.1
YQSFVQFLQYYYGSGCLYRLRALG	2.27
YQSFVQFLQYYYHSGCLYRLRALG	2.75
YQSFVQFLAYYYQSGCLYRLRALG	2.91
YQSFVQFLLYYYQSGCLYRLRALG	2.74
YQSFVQFLCYYYQSGCLYRLRALG	2.9
YQSFVQFLMYYYQSGCLYRLRALG	1.77
YQSFVQFLWYYYQSGCLYRLRALG	2.71
YQSFVQFLNYYYQSGCLYRLRALG	2.7
YQSFVQFLPYYYQSGCLYRLRALG	1.25
YQSFVQFLFYYYQSGCLYRLRALG	2.13
YQSFVQFLQQYYQSGCLYRLRALG	2.35
YQSFVQFLQSYYQSGCLYRLRALG	2.58
YQSFVQFLQCYYQSGCLYRLRALG	2.56
YQSFVQFLQAYYQSGCLYRLRALG	1.83
YQSFVQFLQGYYQSGCLYRLRALG	3.01
YQSFVQFLQIYYQSGCLYRLRALG	4.51

Variant	protein stability index
YQSFVQFLQEYYQSGCLYRLRALG	1.79
YQSFVQFLQHYYQSGCLYRLRALG	2.17
YQSFVQFSQYYYQSGCLYRLRALG	1.28
YQSFVQFQQYYYQSGCLYRLRALG	2.13
YQSFVQFTQYYYQSGCLYRLRALG	1.88
YQSFVQFNQYYYQSGCLYRLRALG	2.08
YQSFVQFCQYYYQSGCLYRLRALG	2.17
YQSFVQFEQYYYQSGCLYRLRALG	1.66
YQSFVQFAQYYYQSGCLYRLRALG	3.44
YQSFVQFWQYYYQSGCLYRLRALG	1.62
YQSFVQFGQYYYQSGCLYRLRALG	3.09
YQSFVQFYQYYYQSGCLYRLRALG	2.79
YQSFVQFDQYYYQSGCLYRLRALG	1.91
YQSFVQFHQYYYQSGCLYRLRALG	1.73
YQSFVQFLQYYYQEGCLYRLRALG	2.56
YQSFVQFLQYYYQRGCLYRLRALG	1.84
YQSFVQFLQYYYQGGCLYRLRALG	3.08
YQSFVQFLQYYYQQGCLYRLRALG	2.52
YQSFVQFLQYYYQMGCLYRLRALG	2.02
YQSFVQFLQYYYQNGCLYRLRALG	4.03
YQSFVQFLQYYYQIGCLYRLRALG	3.42
YQSFVQFLQYYYQHGCLYRLRALG	2.92
YQSFVQFLQYYYQVGCLYRLRALG	3.65
YQSFVQFLQYYYQTGCLYRLRALG	3.4

Variant	protein stability index
YQSMVQFLQYYYQSGCLYRLRALG	2.91
YQSSVQFLQYYYQSGCLYRLRALG	1.59
YQSRVQFLQYYYQSGCLYRLRALG	1.62
YQSYVQFLQYYYQSGCLYRLRALG	2.38
YQSCVQFLQYYYQSGCLYRLRALG	3.14
YQSVVQFLQYYYQSGCLYRLRALG	4.44
YQSIVQFLQYYYQSGCLYRLRALG	3.47
YQSWVQFLQYYYQSGCLYRLRALG	2.8
YQSDVQFLQYYYQSGCLYRLRALG	1.31
YQSTVQFLQYYYQSGCLYRLRALG	3.43
YQSLVQFLQYYYQSGCLYRLRALG	3.35
YQSAVQFLQYYYQSGCLYRLRALG	3.21
YQSPVQFLQYYYQSGCLYRLRALG	2.47
KQSFVQFLQYYYQSGCLYRLRALG	2.19
IQSFVQFLQYYYQSGCLYRLRALG	2.24
EQSFVQFLQYYYQSGCLYRLRALG	1.49
QQSFVQFLQYYYQSGCLYRLRALG	2.83
MQSFVQFLQYYYQSGCLYRLRALG	2.68
FQSFVQFLQYYYQSGCLYRLRALG	3.06
SQSFVQFLQYYYQSGCLYRLRALG	1.86
